From patent publication US20070099822A1, “Regulation of tissue mineralization and phosphate metabolism by asarm peptides” (priority 2003, published 2007)
Entries after “also recorded” stand apart in the source; their conditions may differ.

Columns and labels:
[1] = system: mouse osteoblast cell-line 2T3; test: Mineralized bone matrix formation assay (von Kossa), BMP2-induced; format: cell-based; conditions: 2T3 cells; for effect on BMP2-mediated mineralization (von Kossa staining): Hu-MEPE 10-800 ng/mL, ASARM-peptide 60 and 300 ng/mL, control peptide 300 ng/mL
From the text: Mineralized bone matrix formation assay. A mouse osteoblast cell-line (2T3-cells) were monitored using a mineralized matrix formation assay as described by Bhargava et al. (Ultrastructural analysis of bone nodules formed in vitro by isolated fetal rat calvaria cells. Bone 9:155-63, 1988) and cultured as described previously (Bhargava et al., supra; Chen et al. Differential roles for bone morphogenetic protein (BMP) receptor type IB and IA in differentiation and specification of mesenchymal precursor cells to osteoblast and adipocyte lineages. J Cell Biol 142:295-305, 1998; and Zhao, et al. Bone morphogenetic protein receptor signaling is necessary for normal murine postnatal bone formation. J Cell Biol 157:1049-60, 2002). Mineralization of the murine osteoblastic 2T3 cell-line has been extensively studied using physical techniques, electron microscopy and histological techniques. This cell line (2T3) undergoes exogenous BMP2-induced mineralized-matrix indistinguishable from normal bone-mineral hydroxyapatite in-vitro (Bhargava et al., supra; Chen et al., supra; and Zhao et al., supra). The cells were plated in 24-well culture plates at density of 2×10^4 cells/well and cultured with minimal essential medium (MEM) supplemented with 10% FCS. When the cells reached confluency (day 0), the medium was changed to MEM containing 5% FCS, 100 μg/mL ascorbic acid and 5 mM β-glycerol phosphate with or without 100 ng/mL of BMP-2. The effects of Hu-MEPE, MEPE ASARM-peptide and control peptide at different doses (see results section) in the absence and presence of BMP2 were measured using the von Kossa stain for mineralization. The medium was changed every other day and fresh reagents were added. Von Kossa stain of mineralized bone matrix was performed as follows. The cell cultures were washed with PBS twice, fixed in phosphate buffered formalin for 10 min, and then washed with water, and serially dehydrated in 70%, 95%, and 100% ethanol, twice each and air dried. The plates were rehydrated from 100% to 95% to 80% ethanol to water before staining. The water was removed, a 2% silver nitrate solution was added, and the plates were exposed to sunlight for 20 min, after which the plates were rinsed with water. 5% sodium thiosulfate was added for 3 min and the plates were then rinsed with water. The modified van Gieson stain was then used as a counterstain after the von Kossa stain. The unmineralized collagen matrix can be recognized by the yellow/red van Gieson stain. The acid fuchsin solution (5 part of 1% acid fuchsin, 95 part of picric acid, and 0.25 part of 12 M HCl) was added for 5 min. The plates were washed with water, and then 2×95% ethanol and 2×100% ethanol, and dried for image analysis. The area of von Kossa stained matrix was quantitated as previously described (Chen et al., supra). Briefly matrix was quantified by automated image analysis using a video analysis program (Jandel Scientific, San Rafael Calif.) and also a Bio-Rad (Hercules, Calif.) Quantity-1 image analysis capture program. A video screen camera (CCD/RGB; Sony Corp., Park Ridge, N.J.) linked to a microscope (model BH2; Olympus Corp., Precision Instruments Division, Lake Success, N.Y.) equipped with metallurgical lens was used to image plates.

CHO cell tumors = test: Example IV: CHO cell tumors expressing MEPE in athymic nude mice; format: in vivo
Procedure: Six groups of athymic nude mice were injected with the one of the following: normal saline, CHO cells, CHO cells containing an empty vector, CHO cells expressing MEPE (CHO-MEPE), CHO cells expressing PHEX (CHO-PHEX), and CHO cells expressing PHEX and MEPE (CHO-PHEX-MEPE). Tumor size was assessed based on combined tumor weight at nine different time points.

Row | Molecule | effect on BMP2-mediated mineralization (von Kossa staining) ([1]; BMP2 100 ng/mL, listed as MEPE ASARM-peptide) | effect on BMP2-mediated mineralization (von Kossa staining) ([1]; BMP2 100 ng/mL, listed as MEPE-ASARM-peptide) | effect on BMP2-mediated mineralization at concentrations above 100 ng/mL ([1]; BMP2 100 ng/mL, Hu-MEPE above 100 ng/mL) | effect on BMP2-mediated mineralization (von Kossa staining) ([1]; BMP2 100 ng/mL) | mineralization in the absence of BMP2 ([1]; no BMP2) | tumor size (combined tumor weight) (CHO cell tumors; CHO cells expressing MEPE vs CHO cells with empty vector, nude mice) | 1,25-vitamin D3 serum levels (CHO cell tumors; CHO-MEPE and CHO-PHEX-MEPE groups vs groups not expressing MEPE) | serum phosphate (CHO cell tumors; after thirteen days, CHO-MEPE and CHO-PHEX-MEPE groups)
1 | H-CFSSRRRDDSSESSDSGSSSESDGD-OH [ASARM-peptide] | dose-dependently inhibits | inhibit |  |  |  |  |  | 
2 | Hu-MEPE: purified insect expressed full-length recombinant human MEPE (Matrix Extracellular Phosphoglycoprotein) (protein) PTFQPQTEKTKQSCVEEQRQEEKNKDNIGFHHLGKRINQELSSKENIVQERKKDLSLSEASENKGSSKSQNYFTNRQRLNKEYSISNKENTHNGLRMSIYPKSTGNKGFEDGDDAISKLHDQEEYGAALIRNNMQHIMGPVTAIKLLGEENKENTPRNVLNIIPASMNYAKAHSKDKKKPQRDSQAQKSPVKSKSTHRIQHNIDYLKHLSKVKKIPSDFEGSGYTDLQERGDNDISPFSGDGQPFKDIPGKGEATGPDLEGKDIQTGFAGPSEAESTHLDTKKPGYNEIPEREENGGNTIGTRDETAKEADAVDVSLVEGSNDIMGSTNFKELPGREGNRVDAGSQNAHQGKVEFHYPPAPSKEKRKEGSSDAAESTNYNEIPKNGKGSTRKGVDHSNRNQATLNEKQRFPSKGKSQGLPIPSRGLDNEIKNEMDSFNGPSHENIITHGRKYHYVPHRQNNSTRNKGMPQGKGSWGRQPHSNRRFSSRRRDDSSESSDSGSSSESDGD |  |  | very effective inhibitors; also recorded: completely inhibited mineralization | dose dependently and reproducibly inhibited mineralization; also recorded: inhibit; also recorded: highly significant inhibition | no effect on mineralization; also recorded: indistinguishable to control cells | significantly reduced; also recorded: dramatically reduced size | decrease in serum levels | hypophosphatemia; also recorded: decrease in serum phosphate
